# From patent EP1126866B1 (The Regents of the University of California, dated 2007)
# Target: rat cardiac SR Ca2+ ATPase (SERCA2a), endogenous in rat cardiomyocytes (rat, UniProt P11507 1-1043)
# Test: cell-based or functional assay
# rat cardiac SR Ca2+ ATPase (SERCA2a), endogenous in rat cardiomyocytes, sequence (P11507 whole entry): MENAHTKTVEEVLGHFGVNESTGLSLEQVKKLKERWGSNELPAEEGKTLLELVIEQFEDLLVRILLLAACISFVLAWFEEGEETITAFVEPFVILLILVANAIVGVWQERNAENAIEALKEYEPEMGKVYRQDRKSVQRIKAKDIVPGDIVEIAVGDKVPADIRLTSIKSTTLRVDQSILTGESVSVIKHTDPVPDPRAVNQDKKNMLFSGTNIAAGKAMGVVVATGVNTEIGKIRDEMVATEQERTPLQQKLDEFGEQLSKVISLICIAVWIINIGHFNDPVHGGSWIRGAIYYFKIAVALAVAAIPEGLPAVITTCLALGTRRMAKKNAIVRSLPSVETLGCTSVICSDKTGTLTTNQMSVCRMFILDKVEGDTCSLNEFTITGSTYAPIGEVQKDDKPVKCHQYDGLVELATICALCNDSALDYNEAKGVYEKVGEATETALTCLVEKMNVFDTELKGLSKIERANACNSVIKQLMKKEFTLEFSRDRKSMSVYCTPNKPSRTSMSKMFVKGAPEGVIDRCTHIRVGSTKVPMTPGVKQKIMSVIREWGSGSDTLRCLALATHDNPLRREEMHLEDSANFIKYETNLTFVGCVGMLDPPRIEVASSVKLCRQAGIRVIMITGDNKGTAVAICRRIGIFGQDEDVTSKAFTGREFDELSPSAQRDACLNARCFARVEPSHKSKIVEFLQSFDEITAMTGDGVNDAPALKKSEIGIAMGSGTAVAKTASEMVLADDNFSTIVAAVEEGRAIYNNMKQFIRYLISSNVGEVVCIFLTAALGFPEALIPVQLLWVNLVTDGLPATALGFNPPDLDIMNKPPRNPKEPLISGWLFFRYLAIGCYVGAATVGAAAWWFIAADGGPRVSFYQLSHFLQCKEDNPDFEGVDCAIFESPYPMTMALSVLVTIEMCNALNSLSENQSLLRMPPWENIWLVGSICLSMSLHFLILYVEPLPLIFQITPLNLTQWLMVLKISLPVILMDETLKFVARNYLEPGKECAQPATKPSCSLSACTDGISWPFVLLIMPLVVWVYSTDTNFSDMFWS
binder,measurement,value
K3E/R14E double point mutation of PLB (other) MEEVQYLTRSAIREASTIEMPQQARQKLQNLFINFCLILICLLLICIIVMLL,EC50 of Ca2+ concentration at which the SR Ca2+ uptake activity is half-maximal (neonatal rat myocytes),110 nM
same,lowering of the EC50 of Ca2+ for SR Ca2+ uptake (adult rat myocytes),36%
